Target: IgG 1C1
Assay: BLI; IgG captured on anti-human biosensors, quenched with Fc; receptor ECD-Fc in solution, three-fold dilutions from 300 nM; PBS, 1% BSA, 0.05% Tween 20; 25°C; 1:1 binding model

IgG 1C1, sequence (heavy, as listed by the source, chain 1 of 2): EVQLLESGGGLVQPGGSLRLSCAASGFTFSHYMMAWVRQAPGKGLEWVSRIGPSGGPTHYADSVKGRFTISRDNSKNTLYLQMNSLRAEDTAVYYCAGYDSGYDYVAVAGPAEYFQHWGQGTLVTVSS
IgG 1C1, sequence (light, as listed by the source, chain 2 of 2): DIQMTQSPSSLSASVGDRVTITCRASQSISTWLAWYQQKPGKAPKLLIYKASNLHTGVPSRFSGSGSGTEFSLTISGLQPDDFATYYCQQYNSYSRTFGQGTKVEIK

Kd: 970 nM
B1: EphA8-Fc (Fc fusion)
chain: ARGEVNLLDTSTIHGDWGWLTYPAHGWDSINEVDESFQPIHTYQVCNVMSPNQNNWLRTSWVPRDGARRVYAEIKFTLRDCNSMPGVLGTCKETFNLYYLESDRDLGASTQESQFLKIDTIAADESFTGADLGVRRLKLNTEVRSVGPLSKRGFYLAFQDIGACLAILSLRIYYKKCPAMVRNLAAFSEAVTGADSSSLVEVRGQCVRHSEERDTPKMYCSAEGEWLVPIGKCVCSAGYEERRDACVACELGFYKSAPGDQLCARCPPHSHSAAPAAQACHCDLSYYRAALDPPSSACTRPPSAPVNLISSVNGTSVTLEWAPPLDPGGRSDITYNAVCRRCPWALSRCEACGSGTRFVPQQTSLVQASLLVANLLAHMNYSFWIEAVNGVSDLSPEPRRAAVVNITTNQAAPSQVVVIRQERAGQTSVSLLWQEPEQPNGIILEYEIKYYEKDKEMQSYSTLKAVTTRATVSGLKPGTRYVFQVRARTSAGCGRFSQAMEVETGKPRPRYDTRT
